The target of this assay is vitronectin (urea-purified). Description: solid-phase binding assay.

Where only a bound is given, the exact number is not on record here.

On to “soluble uPAR Y92A (from UniProt Q03405 23-305) (domain or fragment)”, for which the fold reduction in binding is above 5 fold.

The substance “soluble uPAR R91A (from UniProt Q03405 23-305) (domain or fragment)” registered a fold reduction in binding above 5 fold.

On to “soluble uPAR R58A (from UniProt Q03405 23-305) (domain or fragment)”, for which the fold reduction in binding is above 5 fold.

On to “soluble uPAR I63A (from UniProt Q03405 23-305) (domain or fragment)”, for which the fold reduction in binding was above 5 fold.

In turn, “soluble uPAR W32A (from UniProt Q03405 23-305) (domain or fragment)” gave a fold reduction in binding above 5 fold.

These data come from paper PMC2064291.
